The values below come from the supplement of paper PMC11502859.

In the series the test system is HEK293T. Put plainly: median enrichment of reporter reads in eGFP-reduced (low/intermediate) vs eGFP-high sorted cells (eGFP-extension fusion abundance) (ratio); higher = stronger loss of eGFP-fusion protein abundance (more destabilising extension).
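Further: lentiviral eGFP-IRES-mCherry reporter pool sorted by FACS 96 h post-transduction, gated on mCherry-high cells, Illumina read counts normalized per million, median across four biological replicates.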

For the substance LGHANNQSCSNFKPVTAHNRPGSELCEGP [CDON], the median enrichment is 0.661.
Take “LLLPADLWIRSLLTGCVTLGPELPLSGPQRPYEGPLLQEHPHDIAFGGAPVACRIACGLCNLLRFKTDGHMCQWGSLSPGPKK [JAK3]”: the median enrichment worked out at 5.04.
The value for IIIIIII [Ile07] was 11.
Then “EEESLPPPKYWAALSLPRDHPSLPAMCTIMTNLFGYAVVLPFWGLGSTRRLCLQCRNLFSLCVAGARAQGPCLCIFNKYSFSK [GPR108]”, with 0.994; and “WAPSCLSRDPGTPPARTLGLSLPRAPPASVDWRVVLPLPRNQPQPR [SLC9A3R2]”, with 18.7.
On to QRLAPACTPAPAAGSPQSQPFGTVLTL [ABCG4], for which the median enrichment was determined as 28.4.
As for “QDTVNSSSKILACKHPLKFKRGKIKYNEF [ANKRD30BL]”, the median enrichment was determined as 1.66.
With SGLLLY [MRPL20], the median enrichment was 1.83.
The value for SDFDHLNFL [IL1RL1] was 0.533.
Then YSWANDH [SEMA4F], with 0.76; and YELNKNKIQV [CXorf66], with 0.339.
Then RRTHRQ [ZNF397], with 1.02; and “KFSLLHYVHKGDHYHWGRNSCLVQCGKFLYIR [PDZRN3]”, with 12.1; and NNNNNNNN [Asn08], with 0.184.
For WGAAYQSLGSHLLRC [C11orf91], the median enrichment came to 5.76.
With PPP [Pro03], the median enrichment stood at 0.305.
For AAAAAAA [Ala07], the median enrichment was determined as 8.7.
The value for EGGALCLCLPV [CTSE] was 7.51.
On to QNNVSYFSIKDHLKLLIPNIN [DMAC2L], for which the median enrichment came to 12.2.
The value for YKTPCSAILISYR [APOO] was 4.54; that for YKSDCSVRIYIYRFQSNKWGNR [CCNG2] was 4.91; that for “LLLPGGEQPTRCRFALRGASYIGTLLSLQNDDTNANDQM [TFB1M]” was 5.57.
Then “RLSTGPLHTISLIYVPSTLPQISGSGPGTWEGTGVRGCMGALAAPGSVVGRKLWKL [LRRC73]”, with 6.15.
Then YRKGW [C9orf131], with 0.926.
Take EYKLS [UBA6]: the median enrichment came out at 0.363.
Then “EFILERNSTNVKNVTKLLSISLTLLHIRKFILEKNPTDVKNVAKPLSTPLNLLHIRDFILERNPTDVNNVVKLFTYPHTLLHI [ZNF626]”, with 2.95.
Then HHHHHHH [His07], with 0.367.
Then RPPLSPECNKHQIPCVK [POLR2I], with 3.52.
In the case of “LLECEISVGQTTRVCVCVLMESSLVVSSSFFLVTVLLNLIK [PET117]”, the median enrichment turned out to be 9.64.
Then “WGRRCGAVNFRPQRSQSMRGGGGGRGRRAKGGGAGASNPRQ [KISS1]”, with 15.8.
The value for LRMWKITCFYLELFNLKIRNCFLLLSQ [CCDC34] was 26.1.
The value for CRL [ACADSB] was 4.42; that for STIEICSEM [PCDH11Y] was 0.758; that for “SHGGVRSCPCSESTFPAIPGAGGACASAIPCDQAPRGRDQRGRKHCACAELSASARRASLPNQPWVPGSRLEPAINSLFLAPG [TSSK6]” was 4.1.
With WKK [JAK2], the median enrichment came to 0.476.
Then “LDAIWIWGLGVCVGGGIKWLWAGLSFPTAGCHIYTISLVRFLYKNLLLT [LSMEM2]”, with 15.5; and LNGSHSVTQAGVKWPNHSSLQPQPGRFR [COX17], with 8.21.
The value for “RVFGNRISCVAHRPVEKLEPKLSYLEMTFGLDSW [C12orf76]” was 4.28; that for QHYS [C4BPB] was 0.456.
The value for RSHTACSFGCD [EIF2B5] was 0.722; that for “LAEDPADPYLEEEEKQERESHSQPAIGSNWTTCGMDLETSTSPNTSPLPRAGPVHALP [CYFIP2]” was 1.33; that for “YKHESFIHTFRQAREVQQVTAKGGNCSHLPPILPAENPDCIQCPQCSHHFAPKVAEQHIPKCKTIKNCLPPLRKHYS [ZC2HC1C]” was 0.72.
As for “WARTSPGTAGGPPPPPSHSVTPGPSGAGWRPRSPLLRSPRS [NPB]”, the median enrichment is 3.31.
Turning to CSDVPFIYNNVKCNCLVP [TCP1], the median enrichment was 4.71.
Then “KCYRLNDSASRLPKSKALFRAAHSFPQKSS [HIST1H4E]”, with 8.92; and “SDLVQHGNDSYRLIQQLTLRQVVLFQRPLFLPKPCYELNQMCQVFSGVLSNILFSCMGTSPLQMTMLMDLFIYLFKSLFS [IFNA8]”, with 8.28.
The value for “SYEQNKTLRKINRQGSDLFLKNLRSVDSQED [PRKACB]” was 2.01.
As for “FPPPPSSGSPRSNVPPATFPLWPPAELICLSHRSWCLPLHRSLNAATLAGSRWKLVEGPCQVTAMLSLSRHGPGSFRHIQILH [S100A7A]”, the median enrichment was 8.52.
Turning to MMMMMMMMM [Met09], the median enrichment came out at 8.27.
The value for LPVGVAGSSLQIWPARCLAGWTG [DOLPP1] was 8.63; that for EAKSRCTQHVLGMQPQEVPDLKQPDSYLA [GREM1] was 0.305; that for “IYPSPGSPGHSVLSKTRMWYQLWKRKVSCQQYLLPSRQPSQVRHLLRSHREPGVCTSWKSCHQPGHSSHRIDQRACFLIQENE [SPSB4]” was 7.01.
As for YHAPRLEGRNSRLQNRHEMVWPCDYTL [TRMT44], the median enrichment worked out at 1.98.
The value for CRSWRTLGPRPAPIAGGR [MKNK2] was 8.08; that for SETEASLFHSPS [EPB41L4B] was 0.374; that for SVPLSHPYL [KLK2] was 0.37.
Turning to NRRRRWRERQR [Degron FEM1C], the median enrichment was 21.1.
Then “GYSHPGTEKAADGDCLPQPQQHLGLQLLESYHPRRQAQPGRGEEWAVKMKPHAQSPPIPHAAPPQSQATSCLLLVGGGLLSPS [LGALS9]”, with 3.94; and KKKKKKKK [Lys08], with 1.65; and “LTFSGNRADDYNIFFLMLTFLKIHIWDSYYQGSTYVNLQFMFQDICQMYYRCL [SUV39H2]”, with 10.1.
For the substance SEELPGRTQDAEPRSLPG [ACAN], the median enrichment came to 0.794.
For the substance YWENPLLVHLKTPNSTIICQEIKRTTP [PCP4], the median enrichment was found to be 13.6.
Then KITF [SNCAIP], with 0.77; and QGGDF [KIF16B], with 0.225; and WSQLTSLSRKVYP [CD9], with 1.91.
Then YKNQNGLR [ADGRB3], with 0.651; and “CQKHKMMQCGPPCTFCNVIAVNGKTIALLKTHL [MARCH11]”, with 12.3.
The value for AAAAAAAAA [Ala09] was 8.59; that for “WEMVGIRLRAASTQSQSKASLLMCEFTNSDGSSHILQMLSLPAG [ITSN2]” was 19.2; that for “WQKSKGHPVPGRLSGICSPVPGTKSSTAAVKKHALESLEHEEKQGLVHMFFGISL [IL1RAPL1]” was 10.6.
Consider QTGRLDF [RPL24], for which the median enrichment came to 0.466.
The value for WLSF [KRT28] was 6.06; that for WKLYMLRDVLLSGSIELPLSVNFKV [PDCD10] was 11; that for KTKAKYIDFTVILKYNKNC [IL26] was 5.5.
For YNSEVNVLKYNY [TEFM], the median enrichment was determined as 0.662.
The value for SCRDSPAPKYK [MT1G] was 0.15.
Then “STSPAPLRTPPRLDGWAHASHWGPGSRRWAPTLGPRGAANHTGLRPSYPAPSPSTSTFTSPPFHFFLYVFFLLETDSIHIEYN [JUNB]”, with 4.9.
Then SEVLLETKSPSPIAEGGGDPLL [ARID3C], with 0.257; and LRSLI [BAMBI], with 7.1; and “CPDHGQGLPPCAPQLSPSKCVLRASLFFTAAATFPHCLRCREGQVPASTGISDKPRAQPTRGSSLHAHTGYGDGGLQVSSARG [SSNA1]”, with 7.23.
In the case of PPPP [Pro04], the median enrichment is 0.659.
The value for WGWKGPEG [SLC35B2] was 1.98.
Turning to QPKTRGSDLC [EPC2], the median enrichment came to 0.415.
Then RTFATVYFKNKFKLFYHFI [ABCB4], with 7.31; and YEERDYLHIKNI [SLC35B1], with 0.713.
The value for WSAVA [EFCAB2] was 0.771.
The value for LGALPGTGSLTSQD [KIF19] was 0.309; that for “LKKKKQQVMELHILVTQWTIIGSHWKSGKNPWRLSFSDILPNALLSRIFVSFCLIFWGVFVVVGLFFVFFF [PPP1R12A]” was 5.8.
In the case of WNRIEQNRIE [PCSK5], the median enrichment amounted to 0.778.
For “RGKRAPVRRKGRRFRDVGGHPSPSRPCWGHGSGGGDMGPRQTASPTEHLDSNSVPGGAPTPPFSVSSCLFFFIFITKFHSF [ZFP36L2]”, the median enrichment was 5.27.
The value for SVSGNHEGIWQ [MOAP1] was 0.522; that for LGGVWGHPS [ZG16B] was 2.14.
Turning to “LKWAEPKFGVLHRAPFLHPWGGAQLGATLTMPRPHPVQHSQSSHLHPRTVGAGRHFPLEHVLRSITLGPTARLSLPPGSCMRS [SCARA5]”, the median enrichment amounted to 5.99.
Then QLYSTKIFKDWFLF [DIS3], with 11.1; and CRVAFFLL [GTF2A1], with 11.
Consider VVVVVVVV [Val08], for which the median enrichment came to 10.5.
The value for “LAPASGLAIPLLSADYGVSTFGHNTYSPFTLYHSATNHRTDHLRLFLLALCVQDSLIHFCW [GIGYF2]” was 35.9.
Then LNI [WDR78], with 0.527; and “SVAMVKVSVAAAAMASRRRCWDCFALEPASGCPLQWLCYCMDCILDFMCMSQ [DYNLL2]”, with 11.
The value for WRFPLPSSQPP [MEF2D] was 2.36; that for “CGEPLAWPTNLGFTIQTADWMKLCTFLSLQLPYVESVIFICTFFAT [TAF7L]” was 10.8.
“CPVPARQKEQCQPHQDRWGFESALIWVCLGAPA [SLC37A3]”: the median enrichment came to 5.61.
Then “WARGHARAVQSWPGPPVGLLCSLPSLPPDAGPCCSLRTIRSSCSCHPHLETCLCAHLKMGSVPVLKCPVAAPVVEDQGLRFGT [FRMD8]”, with 5.56.
